To fix the notation:
B1: SH3BP2 peptide 408-423 (SH3 domain-binding protein 2), 16-mer library wild type / TNKS ANK (TNKS 12 ANK repeats, residues 174-649) (parent complex)
chain 1: PQLPHLQRSPPDGQSF
chain 2: TGVPAVSGALRELLEACRNGDVSRVKRLVDAANVNAKDMAGRKSSPLHFAAGFGRKDVVEHLLQMGANVHARDDGGLIPLHNACSFGHAEVVSLLLCQGADPNARDNWNYTPLHEAAIKGKIDVCIVLLQHGADPNIRNTDGKSALDLADPSAKAVLTGEYKKDELLEAARSGNEEKLMALLTPLNVNCHASDGRKSTPLHLAAGYNRVRIVQLLLQHGADVHAKDKGGLVPLHNACSYGHYEVTELLLKHGACVNAMDLWQFTPLHEAASKNRVEVCSLLLSHGADPTLVNCHGKSAVDMAPTPELRERLTYEFKGHSLLQAAREADLAKVKKTLALEIINFKQPQSHETALHCAVASLHPKRKQVTELLLRKGANVNEKNKDFMTPLHVAAERAHNDVMEVLHKHGAKMNALDTLGQTALHRAALAGHLQTCRLLLSYGSDPSIISLQGFTAAQMGNEAVQQILSESTPIRTSD

The variants in the test derive from B1. Put plainly: proteomic peptide phage display deep mutational scan (ProP-PD DMS): M13 P8 16-mer library selected against immobilised GST-tagged bait for four days (rounds), NGS of the eluted pools per day and pseudo-replica; bait immobilised on MaxiSorp plates (10 µg), library pre-cleared on GST, 2 h binding at 4 °C, five washes; one round per day, days 1-4; value from days 2 and 3.
chain 1 PQLPHLQRSPPDGQSW [chain 1 F16W]: the screen value was 0.000272 average fractional NGS count over selection days 2 and 3 (reads of this peptide / all reads for the bait, averaged over ….

Regarding chain 1 PQLPHLQRSPPDGQSN [chain 1 F16N], the screen value is 0.000118 average fractional NGS count over selection days 2 and 3 (reads of this peptide / all reads for the bait, averaged over ….

Consider chain 1 PQLPHLQRSPPDGQSR [chain 1 F16R], for which the screen value is 0.00135 average fractional NGS count over selection days 2 and 3 (reads of this peptide / all reads for the bait, averaged over ….

For the variant chain 1 PQLPHLQRSPPDGQSY [chain 1 F16Y], the screen value was 0.011 average fractional NGS count over selection days 2 and 3 (reads of this peptide / all reads for the bait, averaged over ….

As for chain 1 PQLPHLIRSPPDGQSF [chain 1 Q7I], the screen value was 0.000144 average fractional NGS count over selection days 2 and 3 (reads of this peptide / all reads for the bait, averaged over ….

With chain 1 PQLPHLDRSPPDGQSF [chain 1 Q7D], the screen value is 0.00248 average fractional NGS count over selection days 2 and 3 (reads of this peptide / all reads for the bait, averaged over ….

Consider chain 1 PQLPHLTRSPPDGQSF [chain 1 Q7T], for which the screen value was 0.000465 average fractional NGS count over selection days 2 and 3 (reads of this peptide / all reads for the bait, averaged over ….

In the case of chain 1 PQLPHLQRPPPDGQSF [chain 1 S9P], the screen value is 0.000122 average fractional NGS count over selection days 2 and 3 (reads of this peptide / all reads for the bait, averaged over ….

Turning to chain 1 PQLPHLQRTPPDGQSF [chain 1 S9T], the screen value is 0.00132 average fractional NGS count over selection days 2 and 3 (reads of this peptide / all reads for the bait, averaged over ….

In the case of chain 1 PQLPHLQRFPPDGQSF [chain 1 S9F], the screen value was 0.00032 average fractional NGS count over selection days 2 and 3 (reads of this peptide / all reads for the bait, averaged over ….

For chain 1 PQLPHLQRKPPDGQSF [chain 1 S9K], the screen value was 0.000447 average fractional NGS count over selection days 2 and 3 (reads of this peptide / all reads for the bait, averaged over ….

Take chain 1 PQLPHLQRAPPDGQSF [chain 1 S9A]: the screen value is 0.000813 average fractional NGS count over selection days 2 and 3 (reads of this peptide / all reads for the bait, averaged over ….

As to chain 1 PQLPHLQRVPPDGQSF [chain 1 S9V], the screen value is 0.0149 average fractional NGS count over selection days 2 and 3 (reads of this peptide / all reads for the bait, averaged over ….

As to chain 1 PKLPHLQRSPPDGQSF [chain 1 Q2K], the screen value was 0.000141 average fractional NGS count over selection days 2 and 3 (reads of this peptide / all reads for the bait, averaged over ….

For the variant chain 1 PGLPHLQRSPPDGQSF [chain 1 Q2G], the screen value was 0.000233 average fractional NGS count over selection days 2 and 3 (reads of this peptide / all reads for the bait, averaged over ….

chain 1 PFLPHLQRSPPDGQSF [chain 1 Q2F]: the screen value was 0.000172 average fractional NGS count over selection days 2 and 3 (reads of this peptide / all reads for the bait, averaged over ….

Turning to chain 1 PDLPHLQRSPPDGQSF [chain 1 Q2D], the screen value is 0.00112 average fractional NGS count over selection days 2 and 3 (reads of this peptide / all reads for the bait, averaged over ….

For the variant chain 1 PPLPHLQRSPPDGQSF [chain 1 Q2P], the screen value is 0.00147 average fractional NGS count over selection days 2 and 3 (reads of this peptide / all reads for the bait, averaged over ….

In the case of chain 1 PELPHLQRSPPDGQSF [chain 1 Q2E], the screen value was 0.000696 average fractional NGS count over selection days 2 and 3 (reads of this peptide / all reads for the bait, averaged over ….

chain 1 PSLPHLQRSPPDGQSF [chain 1 Q2S]: the screen value was 0.00172 average fractional NGS count over selection days 2 and 3 (reads of this peptide / all reads for the bait, averaged over ….

For the variant chain 1 PMLPHLQRSPPDGQSF [chain 1 Q2M], the screen value was 0.000169 average fractional NGS count over selection days 2 and 3 (reads of this peptide / all reads for the bait, averaged over ….

chain 1 PALPHLQRSPPDGQSF [chain 1 Q2A]: the screen value is 0.000765 average fractional NGS count over selection days 2 and 3 (reads of this peptide / all reads for the bait, averaged over ….

As for chain 1 PLLPHLQRSPPDGQSF [chain 1 Q2L], the screen value is 0.00153 average fractional NGS count over selection days 2 and 3 (reads of this peptide / all reads for the bait, averaged over ….

For the variant chain 1 PQLEHLQRSPPDGQSF [chain 1 P4E], the screen value was 0.000494 average fractional NGS count over selection days 2 and 3 (reads of this peptide / all reads for the bait, averaged over ….

Consider chain 1 PQLMHLQRSPPDGQSF [chain 1 P4M], for which the screen value is 0.00173 average fractional NGS count over selection days 2 and 3 (reads of this peptide / all reads for the bait, averaged over ….

As for chain 1 PQLLHLQRSPPDGQSF [chain 1 P4L], the screen value was 0.000189 average fractional NGS count over selection days 2 and 3 (reads of this peptide / all reads for the bait, averaged over ….

On to chain 1 PQLWHLQRSPPDGQSF [chain 1 P4W], for which the screen value is 0.000229 average fractional NGS count over selection days 2 and 3 (reads of this peptide / all reads for the bait, averaged over ….

chain 1 PQLQHLQRSPPDGQSF [chain 1 P4Q]: the screen value was 0.000351 average fractional NGS count over selection days 2 and 3 (reads of this peptide / all reads for the bait, averaged over ….

Take chain 1 PQLIHLQRSPPDGQSF [chain 1 P4I]: the screen value is 0.000387 average fractional NGS count over selection days 2 and 3 (reads of this peptide / all reads for the bait, averaged over ….

Regarding chain 1 PQLSHLQRSPPDGQSF [chain 1 P4S], the screen value was 0.000214 average fractional NGS count over selection days 2 and 3 (reads of this peptide / all reads for the bait, averaged over ….

chain 1 PQLPHLQRSPPDGISF [chain 1 Q14I]: the screen value is 0.000236 average fractional NGS count over selection days 2 and 3 (reads of this peptide / all reads for the bait, averaged over ….

Turning to chain 1 PQLPHLQRSPPDGMSF [chain 1 Q14M], the screen value is 0.00362 average fractional NGS count over selection days 2 and 3 (reads of this peptide / all reads for the bait, averaged over ….

Consider chain 1 PQLPHLQRSPPDGYSF [chain 1 Q14Y], for which the screen value is 0.000878 average fractional NGS count over selection days 2 and 3 (reads of this peptide / all reads for the bait, averaged over ….

For the variant chain 1 PQLPHLQRSPPDGSSF [chain 1 Q14S], the screen value is 0.0015 average fractional NGS count over selection days 2 and 3 (reads of this peptide / all reads for the bait, averaged over ….

Regarding chain 1 PQLPHLQRSPPDGVSF [chain 1 Q14V], the screen value was 0.00071 average fractional NGS count over selection days 2 and 3 (reads of this peptide / all reads for the bait, averaged over ….

Consider chain 1 PQLPHLQRSPPDGQHF [chain 1 S15H], for which the screen value was 0.000369 average fractional NGS count over selection days 2 and 3 (reads of this peptide / all reads for the bait, averaged over ….

In the case of chain 1 PQLPHLQRSPPDGQIF [chain 1 S15I], the screen value is 0.000286 average fractional NGS count over selection days 2 and 3 (reads of this peptide / all reads for the bait, averaged over ….

Regarding chain 1 PQLPHLQRSPPDGQDF [chain 1 S15D], the screen value was 0.000182 average fractional NGS count over selection days 2 and 3 (reads of this peptide / all reads for the bait, averaged over ….

Regarding chain 1 PQLPHLQRSPPDGQTF [chain 1 S15T], the screen value is 0.000479 average fractional NGS count over selection days 2 and 3 (reads of this peptide / all reads for the bait, averaged over ….

Take chain 1 PQLPHLQRSPPDGQNF [chain 1 S15N]: the screen value is 0.000592 average fractional NGS count over selection days 2 and 3 (reads of this peptide / all reads for the bait, averaged over ….

Take chain 1 PQLPHLQRSPPDGQAF [chain 1 S15A]: the screen value was 0.00154 average fractional NGS count over selection days 2 and 3 (reads of this peptide / all reads for the bait, averaged over ….

Take chain 1 PQLPHLQRSPPDGQLF [chain 1 S15L]: the screen value was 0.00151 average fractional NGS count over selection days 2 and 3 (reads of this peptide / all reads for the bait, averaged over ….

As to chain 1 PQLPRLQRSPPDGQSF [chain 1 H5R], the screen value was 0.00137 average fractional NGS count over selection days 2 and 3 (reads of this peptide / all reads for the bait, averaged over ….

In the case of chain 1 PQLPSLQRSPPDGQSF [chain 1 H5S], the screen value is 0.000337 average fractional NGS count over selection days 2 and 3 (reads of this peptide / all reads for the bait, averaged over ….

chain 1 PQLPVLQRSPPDGQSF [chain 1 H5V]: the screen value is 0.000333 average fractional NGS count over selection days 2 and 3 (reads of this peptide / all reads for the bait, averaged over ….

On to chain 1 PQLPGLQRSPPDGQSF [chain 1 H5G], for which the screen value is 0.000153 average fractional NGS count over selection days 2 and 3 (reads of this peptide / all reads for the bait, averaged over ….

For the variant chain 1 PQLPHWQRSPPDGQSF [chain 1 L6W], the screen value was 0.000131 average fractional NGS count over selection days 2 and 3 (reads of this peptide / all reads for the bait, averaged over ….

As for chain 1 PQLPHNQRSPPDGQSF [chain 1 L6N], the screen value is 0.000459 average fractional NGS count over selection days 2 and 3 (reads of this peptide / all reads for the bait, averaged over ….

Regarding chain 1 PQLPHLQRSPPIGQSF [chain 1 D12I], the screen value is 0.000718 average fractional NGS count over selection days 2 and 3 (reads of this peptide / all reads for the bait, averaged over ….

With chain 1 PQLPHLQRSPPMGQSF [chain 1 D12M], the screen value was 0.000556 average fractional NGS count over selection days 2 and 3 (reads of this peptide / all reads for the bait, averaged over ….

On to chain 1 PQLPHLQRSPPSGQSF [chain 1 D12S], for which the screen value is 0.000143 average fractional NGS count over selection days 2 and 3 (reads of this peptide / all reads for the bait, averaged over ….

Turning to chain 1 PQLPHLQRSWPDGQSF [chain 1 P10W], the screen value was 0.000201 average fractional NGS count over selection days 2 and 3 (reads of this peptide / all reads for the bait, averaged over ….

Turning to chain 1 PQLPHLQRSQPDGQSF [chain 1 P10Q], the screen value is 0.00105 average fractional NGS count over selection days 2 and 3 (reads of this peptide / all reads for the bait, averaged over ….

As to chain 1 PQLPHLQRSGPDGQSF [chain 1 P10G], the screen value was 0.00637 average fractional NGS count over selection days 2 and 3 (reads of this peptide / all reads for the bait, averaged over ….

For the variant chain 1 PQLPHLQRSNPDGQSF [chain 1 P10N], the screen value is 0.00386 average fractional NGS count over selection days 2 and 3 (reads of this peptide / all reads for the bait, averaged over ….

With chain 1 PQLPHLQRSSPDGQSF [chain 1 P10S], the screen value was 0.000405 average fractional NGS count over selection days 2 and 3 (reads of this peptide / all reads for the bait, averaged over ….

Values taken from article PMC12102759 (2025).
